From US20240382588A1 (published 2024)

How the values were obtained:
Assay in all cases: multimer staining
[1] = target: T1, SmD1 (Smith protein) peptide on HLA-DRA*01:01 / HLA-DRB1*03:01 (human)
T1 peptide: TLLVDVEPKVKSKKR

[2] = target: T2, MPO (myeloperoxidase) peptide on HLA-DRA*01:01 / HLA-DRB1*04:05 (human)
T2 peptide: MVQIITYRDYLPLVL

[3] = target: T3, Ro60 peptide on HLA-DRA*01:01 / HLA-DRB1*03:01 (human)
T3 peptide: KRFLLAVDVSASMNQ

binding result [1]: recognises
binding result [2]: recognises
binding result [3]: recognises
B1: Promiscuous self-TCR (TCR, V domains shown)
Valpha: RKEVEQDPGPFNVPEGATVAFNCTYSNSASQSFFWYRQDCRKEPKLLMSVYSSGNEDGRFTAQLNRASQYISLLIRDSKLSDSATYLCVVPPGGGFKTIFGAGTRLFVKA
Vbeta: EAQVTQNPRYLITVTGKKLTVTCSQNMNHEYMSWYRQDPGLGLRQIYYSMNVEVTDKGDVPEGYKVSRKEKRNFPLILESPSPNQTSLYFCASRTRTASYGYTFGSGTRLTVV
